Test results from patent publication US20140087995A1 (published 2014).
Residue numbers refer to the chain shown, from its start. Read-outs that look alike come from different tables or passages of the source. Numbered stars: 1 amine (or outer) side, 2 acyl side, 3 side chain; on linkers, the order of the positions; unused ones are H or OH. Bridge positions count the residues as written; N and C are the ends. Side chains are listed from the residue outwards. Ends that are not written are not given here. * marks the point of attachment. C20 diacid = O=C(O)CCCCCCCCCCCCCCCCCCC(=O)*; γGlu = O=C(O)[C@H](CCC(=O)[*:2])N[*:1]; AEEA = NCCOCCOCC(=O)O

T1: human amylin receptor (amylin 3(a) receptor: human calcitonin receptor plus RAMP-3) (human, UniProt P30988 25-474; O60896 24-148, limits assumed)
T1 sequence (looked up) 1: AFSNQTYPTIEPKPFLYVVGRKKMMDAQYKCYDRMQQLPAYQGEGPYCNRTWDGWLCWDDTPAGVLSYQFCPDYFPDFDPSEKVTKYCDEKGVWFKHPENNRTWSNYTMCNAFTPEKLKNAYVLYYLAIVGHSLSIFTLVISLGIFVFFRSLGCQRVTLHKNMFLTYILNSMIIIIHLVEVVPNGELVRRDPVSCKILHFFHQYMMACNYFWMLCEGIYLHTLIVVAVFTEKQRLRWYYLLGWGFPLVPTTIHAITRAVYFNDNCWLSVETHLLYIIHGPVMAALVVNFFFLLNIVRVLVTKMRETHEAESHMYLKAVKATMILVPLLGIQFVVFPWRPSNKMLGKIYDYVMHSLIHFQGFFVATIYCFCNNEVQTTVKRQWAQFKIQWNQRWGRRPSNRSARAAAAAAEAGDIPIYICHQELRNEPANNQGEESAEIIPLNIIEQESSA
T1 sequence (looked up) 2: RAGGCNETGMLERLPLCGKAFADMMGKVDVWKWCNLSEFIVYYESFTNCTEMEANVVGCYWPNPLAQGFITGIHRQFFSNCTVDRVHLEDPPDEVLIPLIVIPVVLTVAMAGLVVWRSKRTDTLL

T2: human calcitonin receptor (human, UniProt P30988 25-474)
T2 sequence (looked up): T1 sequence (looked up) 1

T3: human amylin receptor (amylin 3(a) receptor: human calcitonin receptor with RAMP-3) (human, UniProt P30988 25-474; O60896 24-148)
T3 sequence (looked up) 1: T1 sequence (looked up) 1
T3 sequence (looked up) 2: T1 sequence (looked up) 2

T4: human calcitonin receptor (human, UniProt P30988 25-474)
T4 sequence (looked up): T1 sequence (looked up) 1

T5: human calcitonin receptor (human, UniProt P30988 25-474)
T5 construct: whole, on cells; membranes of stably transfected BHK cells (Assay VII); also called hCTR; hCT
T5 sequence (looked up): T1 sequence (looked up) 1

B1: N^ε1-[(4S)-4-carboxy-4-(19-carboxynonadecanoylamino)butanoyl]-[Arg17,Pro21,Pro27]-h-amylin (peptide)
peptide: K([γGlu-C20 diacid])CNTATCATQRLANFLRHSSPNFGAIPSSTNVGSNTY-NH2
modifications: disulfide 2-7; N-terminus assumed
SMILES: CC[C@H](C)[C@H](NC(=O)[C@H](C)NC(=O)CNC(=O)[C@H](Cc1ccccc1)NC(=O)[C@H](CC(N)=O)NC(=O)[C@@H]1CCCN1C(=O)[C@H](CO)NC(=O)[C@H](CO)NC(=O)[C@H](Cc1c[nH]cn1)NC(=O)[C@H](CCCNC(=N)N)NC(=O)[C@H](CC(C)C)NC(=O)[C@H](Cc1ccccc1)NC(=O)[C@H](CC(N)=O)NC(=O)[C@H](C)NC(=O)[C@H](CC(C)C)NC(=O)[C@H](CCCNC(=N)N)NC(=O)[C@H](CCC(N)=O)NC(=O)[C@@H](NC(=O)[C@H](C)NC(=O)[C@@H]1CSSC[C@H](NC(=O)[C@@H](N)CCCCNC(=O)CC[C@H](NC(=O)CCCCCCCCCCCCCCCCCCC(=O)O)C(=O)O)C(=O)N[C@@H](CC(N)=O)C(=O)N[C@@H]([C@@H](C)O)C(=O)N[C@@H](C)C(=O)N[C@@H]([C@@H](C)O)C(=O)N1)[C@@H](C)O)C(=O)N1CCC[C@H]1C(=O)N[C@@H](CO)C(=O)N[C@@H](CO)C(=O)N[C@H](C(=O)N[C@@H](CC(N)=O)C(=O)N[C@H](C(=O)NCC(=O)N[C@@H](CO)C(=O)N[C@@H](CC(N)=O)C(=O)N[C@H](C(=O)N[C@@H](Cc1ccc(O)cc1)C(N)=O)[C@@H](C)O)C(C)C)[C@@H](C)O
notes: Synthetic acylated analogue of human amylin; also called compound 48
B2: N^ε-[2-[2-[2-[[(4S)-4-carboxy-4-(19-carboxynonadecanoylamino)butanoyl]amino]ethoxy]ethoxy]acetyl]Lys[Arg1,Arg17,Pro21,Pro27,His35]-h-amylin (peptide)
peptide: K([AEEA-γGlu-C20 diacid])RCNTATCATQRLANFLRHSSPNFGAIPSSTNVGSHTY-NH2
modifications: disulfide 3-8; N-terminus assumed
SMILES: CC[C@H](C)[C@H](NC(=O)[C@H](C)NC(=O)CNC(=O)[C@H](Cc1ccccc1)NC(=O)[C@H](CC(N)=O)NC(=O)[C@@H]1CCCN1C(=O)[C@H](CO)NC(=O)[C@H](CO)NC(=O)[C@H](Cc1c[nH]cn1)NC(=O)[C@H](CCCNC(=N)N)NC(=O)[C@H](CC(C)C)NC(=O)[C@H](Cc1ccccc1)NC(=O)[C@H](CC(N)=O)NC(=O)[C@H](C)NC(=O)[C@H](CC(C)C)NC(=O)[C@H](CCCNC(=N)N)NC(=O)[C@H](CCC(N)=O)NC(=O)[C@@H](NC(=O)[C@H](C)NC(=O)[C@@H]1CSSC[C@H](NC(=O)[C@H](CCCNC(=N)N)NC(=O)[C@@H](N)CCCCNC(=O)COCCOCCNC(=O)CC[C@H](NC(=O)CCCCCCCCCCCCCCCCCCC(=O)O)C(=O)O)C(=O)N[C@@H](CC(N)=O)C(=O)N[C@@H]([C@@H](C)O)C(=O)N[C@@H](C)C(=O)N[C@@H]([C@@H](C)O)C(=O)N1)[C@@H](C)O)C(=O)N1CCC[C@H]1C(=O)N[C@@H](CO)C(=O)N[C@@H](CO)C(=O)N[C@H](C(=O)N[C@@H](CC(N)=O)C(=O)N[C@H](C(=O)NCC(=O)N[C@@H](CO)C(=O)N[C@@H](Cc1c[nH]cn1)C(=O)N[C@H](C(=O)N[C@@H](Cc1ccc(O)cc1)C(N)=O)[C@@H](C)O)C(C)C)[C@@H](C)O
notes: Synthetic acylated analogue of human amylin, extended by Lys at the N-terminus; also called compound 45
B3: N^-1-[(4S)-4-carboxy-4-(19-carboxynonadecanoylamino)butanoyl]-Gly[Arg1,Arg17,Pro21,Pro27,His35]-h-amylin (peptide)
peptide: {C20 diacid-γGlu}-GRCNTATCATQRLANFLRHSSPNFGAIPSSTNVGSHTY-NH2
modifications: disulfide 3-8
SMILES: CC[C@H](C)[C@H](NC(=O)[C@H](C)NC(=O)CNC(=O)[C@H](Cc1ccccc1)NC(=O)[C@H](CC(N)=O)NC(=O)[C@@H]1CCCN1C(=O)[C@H](CO)NC(=O)[C@H](CO)NC(=O)[C@H](Cc1c[nH]cn1)NC(=O)[C@H](CCCNC(=N)N)NC(=O)[C@H](CC(C)C)NC(=O)[C@H](Cc1ccccc1)NC(=O)[C@H](CC(N)=O)NC(=O)[C@H](C)NC(=O)[C@H](CC(C)C)NC(=O)[C@H](CCCNC(=N)N)NC(=O)[C@H](CCC(N)=O)NC(=O)[C@@H](NC(=O)[C@H](C)NC(=O)[C@@H]1CSSC[C@H](NC(=O)[C@H](CCCNC(=N)N)NC(=O)CNC(=O)CC[C@H](NC(=O)CCCCCCCCCCCCCCCCCCC(=O)O)C(=O)O)C(=O)N[C@@H](CC(N)=O)C(=O)N[C@@H]([C@@H](C)O)C(=O)N[C@@H](C)C(=O)N[C@@H]([C@@H](C)O)C(=O)N1)[C@@H](C)O)C(=O)N1CCC[C@H]1C(=O)N[C@@H](CO)C(=O)N[C@@H](CO)C(=O)N[C@H](C(=O)N[C@@H](CC(N)=O)C(=O)N[C@H](C(=O)NCC(=O)N[C@@H](CO)C(=O)N[C@@H](Cc1c[nH]cn1)C(=O)N[C@H](C(=O)N[C@@H](Cc1ccc(O)cc1)C(N)=O)[C@@H](C)O)C(C)C)[C@@H](C)O
notes: Synthetic acylated analogue of human amylin, extended by Gly at the N-terminus; also called compound 47
B4: N^-1-[(4S)-4-carboxy-4-(19-carboxynonadecanoylamino)butanoyl]-Gly[Arg1,Arg17,Pro21,Pro27]-h-amylin (peptide)
peptide: {C20 diacid-γGlu}-GRCNTATCATQRLANFLRHSSPNFGAIPSSTNVGSNTY-NH2
modifications: disulfide 3-8
SMILES: CC[C@H](C)[C@H](NC(=O)[C@H](C)NC(=O)CNC(=O)[C@H](Cc1ccccc1)NC(=O)[C@H](CC(N)=O)NC(=O)[C@@H]1CCCN1C(=O)[C@H](CO)NC(=O)[C@H](CO)NC(=O)[C@H](Cc1c[nH]cn1)NC(=O)[C@H](CCCNC(=N)N)NC(=O)[C@H](CC(C)C)NC(=O)[C@H](Cc1ccccc1)NC(=O)[C@H](CC(N)=O)NC(=O)[C@H](C)NC(=O)[C@H](CC(C)C)NC(=O)[C@H](CCCNC(=N)N)NC(=O)[C@H](CCC(N)=O)NC(=O)[C@@H](NC(=O)[C@H](C)NC(=O)[C@@H]1CSSC[C@H](NC(=O)[C@H](CCCNC(=N)N)NC(=O)CNC(=O)CC[C@H](NC(=O)CCCCCCCCCCCCCCCCCCC(=O)O)C(=O)O)C(=O)N[C@@H](CC(N)=O)C(=O)N[C@@H]([C@@H](C)O)C(=O)N[C@@H](C)C(=O)N[C@@H]([C@@H](C)O)C(=O)N1)[C@@H](C)O)C(=O)N1CCC[C@H]1C(=O)N[C@@H](CO)C(=O)N[C@@H](CO)C(=O)N[C@H](C(=O)N[C@@H](CC(N)=O)C(=O)N[C@H](C(=O)NCC(=O)N[C@@H](CO)C(=O)N[C@@H](CC(N)=O)C(=O)N[C@H](C(=O)N[C@@H](Cc1ccc(O)cc1)C(N)=O)[C@@H](C)O)C(C)C)[C@@H](C)O
notes: Synthetic acylated analogue of human amylin, extended by Gly at the N-terminus; also called compound 46
B5: N^α1-[(4S)-4-carboxy-4-(19-carboxynonadecanoylamino)butanoyl]-[Glu14,Arg17,Pro21,Pro27]-h-amylin (peptide)
peptide: KCNTATCATQRLAEFLRHSSPNFGAIPSSTNVGSNTY
modifications: C20 diacid-gGlu on the alpha amino group of the N-terminal residue; disulfide bridge Cys2-Cys7; C-terminal amide
notes: also called compound 9
B6: N^α1-[2-[2-[2-[[2-[2-[2-[[(4S)-4-carboxy-4-(19-carboxynonadecanoylamino)butanoyl]amino]ethoxy]ethoxy]acetyl]amino]ethoxy]ethoxy]acetyl]-[Arg17,Pro21,Pro27]-h-am … (peptide)
peptide: B5 peptide with E14N
modifications: C20 diacid-gGlu-2xOEG on the alpha amino group of the N-terminal residue; disulfide bridge Cys2-Cys7; C-terminal amide
notes: also called compound 24
B7: N^α1 N^α1-[(4S)-4-carboxy-4-[[(4S)-4-carboxy-4-(19-carboxynonadecanoylamino)butanoyl]amino]butanoyl]-[Glu14,Arg17,Pro21,Pro27]-h-amylin (peptide)
peptide: {C20 diacid-γGlu-γGlu}-KCNTATCATQRLAEFLRHSSPNFGAIPSSTNVGSNTY-NH2
modifications: disulfide 2-7 (inferred)
notes: analogue of human amylin; the name is printed with N^α1 twice; also called compound 15

How the values were obtained:
[1] = target: T1, human amylin receptor (amylin 3(a) …); assay: cell-based or functional assay
[2] = target: T2, human calcitonin receptor; assay: cell-based or functional assay
[3] = target: T3, human amylin receptor (amylin 3(a) …); assay: cell-based or functional assay
[4] = target: T4, human calcitonin receptor; assay: cell-based or functional assay; remark: listed apart in the source
[5] = target: T5, human calcitonin receptor; assay: IC50 on human calcitonin receptor divided by IC50 on human amylin receptor (SPA competition)
Method: The resulting pellet was resuspended, homogenized and centrifuged (20.000 rpm, 15 min) in a buffer containing 20 mM Na-HEPES and 0.1 mM EDTA (pH 7.4, buffer 2). The resulting pellet was resuspended in buffer 2 and protein concentration was measured (BCA protein Assay, Pierce). The homogenate was kept cold during the whole procedure. The membranes were kept at −80° C. until use. The assay was performed in a 384 well Optiplate (PerkinElmer) in a total volume of 40 ul. Membranes were mixed with SPA beads. Final concentration of membranes 35 ng/μL final and SPA beads was 0.05 mg/well. Test-compounds were dissolved in DMSO and further diluted in assay buffer (50 mM Hepes, pH 7.4, 1 mM CaCl2, 5 mM MgCl₂, 0.1% OA and 0.02% Tween20). […] The final mixture was incubated with shaking at 400 rpm for 120 min at 25° C. prior to centrifugation (1500 rpm, 10 min). Samples were analyzed on TopCounter™ (Packard). The IC₅₀ was calculated using (one site binding competition analysis) GraphPad Prism5 as a measure of receptor affinity.
Membranes were prepared in the following way; the cells were rinsed with PBS and incubated with Versene for approximately 5 min before harvesting. The cells were flushed with PBS and the cell-suspension was centrifuged for 5 min at 1000 rpm. Cells were homogenized (Ultrathurrax) in a buffer containing 20 mM Na-HEPES and 10 mM EDTA (pH 7.4) and centrifuged at 20.000 rpm for 15 min. The resulting pellet was resuspended, homogenized and centrifuged (20.000 rpm, 15 min) in a buffer containing 20 mM Na-HEPES and 0.1 mM EDTA (pH 7.4, buffer 2). The resulting pellet was resuspended in buffer 2 and protein concentration was measured (BCA protein Assay, Pierce). The homogenate was kept cold during the whole procedure. The membranes were kept at −80° C. until use. Assay was performed in a 384 well Optiplate (PerkinElmer) in a total volume of 40 ul. Membranes were mixed with SPA beads.

Binder	Ratio hCT/hAmylin funct. [1] [ratio]	hAmylin-R funct. EC50 [1] [nM]	hCTR funct. EC50 [2] [nM]	hAmylin-R funct. EC50 [3] [nM]	Ratio hCT/hAmylin funct. [4]	hCTR funct. EC50 [4] [nM]	Ratio hCT/hAmylin binding [5]
B1	17	0.116	1.97				
B2	17	0.594	10.1				
B3	6	0.222	1.32				
B4	10.2	0.088	0.899				
B5				0.175	7.4	1.29	
B6				0.433	23.1	10	
B7							26
